Source: patent US20120301468A1, “ANTI-MN ANTIBODIES AND METHODS OF USING SAME” (BAYER HEALTHCARE LLC, priority 2005, published 2012)

Target: human MN protein, entire extra-cellular domain with a C-terminal histag, expressed in HKB-11 cells (human), Q16790
Assay: SPR, BIAcore 3000, IgG captured by anti-human IgG Fc, MN as analyte, 1:1 Langmuir fit
Conditions: remark: other sources report otherwise

Kd: 1 nM
B1: 3a4 full-length human IgG1 (antibody, V domains shown)
VH: QVELVESGGGLVQPGGSLRLSCAASGFTFSDYSINWVRQAPGKGLEYVSNISYSGSSTYYADSVKGRFTISRDNSKNTLYLQMNSLRAEDTAVYYCARFKYSGGSDSWGQGTLVTVSS
VL: DIELTQPPSVSVAPGQTARISCSGDNLPDFYVHWYQQKPGQAPVLVISEDNKRPSGIPERFSGSNSGNTATLTISGTQAEDEADYYCSTYGYTYSYSVFGGGTKLTVL
